Results on one molecule are retold here after patent US20220281975A1 (Eli Lilly, published 2022).

For experiment [1], the target named is T1, human TREM2 expressed on BW5147.G.1.4 cells (human, UniProt Q9NZC2 19-230).
T1 construct: whole, on cells; Co-expressed with the adapter DAP12; also called TREM2 expressing BW5147.G.1.4 cells
T1 sequence (looked up): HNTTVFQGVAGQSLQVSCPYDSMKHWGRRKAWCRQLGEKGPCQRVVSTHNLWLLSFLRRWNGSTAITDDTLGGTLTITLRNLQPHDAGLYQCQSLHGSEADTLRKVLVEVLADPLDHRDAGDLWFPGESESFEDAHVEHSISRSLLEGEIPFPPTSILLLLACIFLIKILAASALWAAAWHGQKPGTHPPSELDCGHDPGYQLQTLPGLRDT
The experiment in a line: flow cytometry (MFI) on BW5147.G.1.4 cells expressing human TREM2 and DAP12, anti-human IgG Alexa Fluor 647 detection. On the procedure: To investigate whether Antibody 1 binds to TREM2-expressing cells, a binding experiment is performed. BW5147.G.1.4 cell line is transduced to express human TREM2 and its adapter […] adapter protein 12 (DAP12). To assess binding, 500,000 cells are incubated in the presence of Antibody 1 with a 3-fold 12-point titration starting at 30 μg/ml for 30 minutes at 37° C. Antibody binding is detected using goat anti-human IgG Alexa Fluor 647 (Jackson Labs). Mean fluorescence intensity (MFI) is measured using an Accuri C6 Plus flow cytometer (BD Biosciences).

For experiment [2], the target named is T2, Human TREM2 R47H (human, UniProt Q9NZC2 19-174, limits assumed).
T2 construct: also called human R47H TREM mutant; R47H TREM
T2 sequence (looked up): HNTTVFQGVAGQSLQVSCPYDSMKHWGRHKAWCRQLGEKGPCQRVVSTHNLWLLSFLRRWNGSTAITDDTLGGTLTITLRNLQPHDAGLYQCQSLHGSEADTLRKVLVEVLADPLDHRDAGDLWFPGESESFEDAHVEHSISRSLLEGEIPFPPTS
The experiment in a line: SPR (Biacore), 37 C, antibody captured on protein A, TREM2 R47H analyte, 1:1 model.

The target of experiment [3] is T3, Human ECD TREM2-His (human, UniProt Q9NZC2 19-174).
T3 construct: also called Human TREM2; human TREM2 extracellular domain fused to a C-terminal His tag
T3 sequence: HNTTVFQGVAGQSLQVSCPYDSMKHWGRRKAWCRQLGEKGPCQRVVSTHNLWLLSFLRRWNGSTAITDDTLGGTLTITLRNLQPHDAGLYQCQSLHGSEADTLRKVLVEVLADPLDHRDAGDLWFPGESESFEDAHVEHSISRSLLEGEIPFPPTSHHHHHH
The experiment in a line: SPR (Biacore), 25 C; 25 C; human TREM2.

In experiment [4] the target is T4, Mouse ECD TREM2-His (mouse, UniProt Q99NH8 19-171).
T4 construct: also called Mouse TREM2
T4 sequence: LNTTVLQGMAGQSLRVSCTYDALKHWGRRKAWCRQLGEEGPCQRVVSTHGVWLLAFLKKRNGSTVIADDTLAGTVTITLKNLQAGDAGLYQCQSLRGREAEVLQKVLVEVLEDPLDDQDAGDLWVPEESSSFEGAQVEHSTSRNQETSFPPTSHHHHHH
The experiment in a line: SPR (Biacore), 37 C, antibody captured on protein A, TREM2-His ECD analyte, 1:1 model. On the procedure:
(§1) The binding kinetics and affinity of TREM2 antibodies to human (SEQ ID NO: 11), mouse (SEQ ID NO: 12), rat (SEQ ID NO: 14), rabbit (SEQ ID NO: 13), or cynomolgus monkey (SEQ ID NO: 15) TREM2 extracellular domains (ECDs) fused to a C-terminal His tag are determined using surface plasmon resonance biosensor such as a BIAcore® T100, BIAcore® T200, or BIAcore® 8K (GE Healthcare, Piscataway, N .).
(§2) Samples are dissolved in 1xHBS-EP+running buffer (Teknova), and a protein A coupled CM5 Series S sensor chip (GE Healthcare) is utilized to capture antibody. Binding is evaluated using multiple analytical cycles. Each cycle is performed at 37° C. at a flow rate of 50 μl/min for antibody capture and 30 μl/min for ligand association and dissociation. Each cycle consists of the following: injection of 7 μl of 1 μg/ml antibody with the aim at a capture of 150-250 response units, injection of human, cynomolgus monkey, rabbit, rat, or mouse TREM2-His ECDs (starting at 20nM and using two-fold serial dilutions for each cycle) followed by 200 seconds for association, followed by 800 second dissociation phase, and regeneration using 10 mM glycine hydrochloride, pH 1.5 over a 30 second contact time. Association (i.e., kₒₙ) and dissociation rates (i.e., koff) for each cycle are evaluated using standard double referencing and fit to “1:1 (Langmuir) binding” model in the Biacore 8K evaluation in parallel kinetics batch mode. The affinity (KD) is calculated from the binding kinetics according to the relationship KD=Koff/Kₒₙ. Due to biphasic binding data for Reference Antibody A, a heterogenous ligand 2:1 binding modeling found in the Biacore 8K evaluation was used to calculate the KD. […] N=3 for Antibody 1 and Reference Antibody A, and n=1 for Reference Antibody B.

Experiment [5] addresses T3, Human ECD TREM2-His. The experiment is described as above. The procedure: as §1, §2
The target in experiment [6] is T5, Cyno ECD TREM2-His (cynomolgus monkey).
T5 construct: also called Cyno TREM2; cynomolgus monkey TREM2
T5 chain: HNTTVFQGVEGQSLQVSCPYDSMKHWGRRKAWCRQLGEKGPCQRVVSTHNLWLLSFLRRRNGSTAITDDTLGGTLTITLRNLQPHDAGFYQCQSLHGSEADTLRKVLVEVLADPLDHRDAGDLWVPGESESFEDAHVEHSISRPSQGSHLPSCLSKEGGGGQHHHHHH
The experiment is described as above. On the procedure: as §1, §2

Experiment [7] deals with T1, human TREM2 expressed on BW5147.G.1.4 …. The experiment in a line: cell-based or functional assay.
Experiment [8] concerns the target T5, Cyno ECD TREM2-His. The experiment in a line: SPR (Biacore), 25 C; 25 C; cynomolgus TREM2.
Experiment [9] has as its target T2, Human TREM2 R47H. The experiment in a line: SPR (Biacore), 25 C; 25 C; human TREM2 R47H.
Experiment [10] deals with T4, Mouse ECD TREM2-His. The experiment in a line: SPR (Biacore), 25 C; 25 C; mouse TREM2.
The target of experiment [11] is T6, Rat ECD TREM2-His (rat).
T6 construct: also called Rat TREM2
T6 chain: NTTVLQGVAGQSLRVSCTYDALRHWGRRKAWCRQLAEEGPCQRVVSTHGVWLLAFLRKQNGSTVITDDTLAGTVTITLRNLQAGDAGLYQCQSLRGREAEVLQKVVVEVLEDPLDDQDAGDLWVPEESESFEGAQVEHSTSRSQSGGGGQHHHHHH
The experiment in a line: SPR (Biacore), 37 C, antibody captured on protein A, TREM2-His ECD as analyte. On the procedure: as §1
(§3) Samples are dissolved in 1xHBS-EP+running buffer (Teknova), and a protein A coupled CM5 Series S sensor chip (GE Healthcare) is utilized to capture antibody. Binding is evaluated using multiple analytical cycles. Each cycle is performed at 37° C. at a flow rate of 50 μl/min for antibody capture and 30 μl/min for ligand association and dissociation. […] Association (i.e., kₒₙ) and dissociation rates (i.e., koff) for each cycle are evaluated using standard double referencing and fit to “1:1 (Langmuir) binding” model in the Biacore 8K evaluation in parallel kinetics batch mode. The affinity (KD) is calculated from the binding kinetics according to the relationship KD=Koff/Kₒₙ. […]

Experiment [12] concerns the target T7, Rabbit ECD TREM2-HIS (rabbit).
T7 construct: also called rabbit TREM2
T7 chain: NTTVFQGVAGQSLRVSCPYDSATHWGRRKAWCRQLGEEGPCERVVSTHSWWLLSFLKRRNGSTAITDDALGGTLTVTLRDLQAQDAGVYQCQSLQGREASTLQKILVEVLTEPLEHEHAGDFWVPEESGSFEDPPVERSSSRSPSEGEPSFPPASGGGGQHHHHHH
The experiment is described as above. The procedure: as §1, §3

B1: TREM2 Antibody 1 (antibody, human IgG4 S228P, kappa, F234A L235A, V domains shown)
VH: EVQLVQSGAEVKKPGESLKISCKGSGFSFNTYWIGWVRQMPGKGLEWMGIIYPGDQDIRYSPSFQGQVTISADKSISTAYLQWSSLKASDTAMYYCARYGRYIYGYGGYHGMDVWGQGTTVTVSS
VL: DIQMTQSPSSLSASVGDRVTITCRASQAIRDDLGWYQQKPGKAPKLLIYAASSLQSGVPSRFSGSGSGTDFTLTISSLQPEDFATYYCLQNYNYPHTFGQGTKLEIKR
notes: Human antibody with a kappa light chain
The molecule B1 yielded an EC50 in experiment [1] of 0.08 mg/L. Besides, the dissociation constant Kd in experiment [2] is 0.075 nM; in experiment [3], 0.15 nM; in experiment [4] it was 1.6 nM; in experiment [5], 0.17 nM; in [6] it was 0.075 nM; in experiment [8] it was 0.043 nM. For the same molecule, the results for the Kd in experiment [9] and in experiment [10] were 0.29 nM and 3.9 nM, respectively. In addition, the koff in experiment [2] stood at 0.00037 s⁻¹; in experiment [4], 0.044 s⁻¹; in experiment [5], 0.00058 s⁻¹; in experiment [6] it was 0.00037 s⁻¹. Further, the kon in experiment [2] is 5e+06 M⁻¹ s⁻¹; in [4] it was 2.5e+07 M⁻¹ s⁻¹; in experiment [5], 3.4e+06 M⁻¹ s⁻¹; in experiment [6], 5e+06 M⁻¹ s⁻¹. Also, in experiment [7], the “IC50 of inhibition of PS-mediated NFAT activation (luciferase reporter cells)” value was found to be 0.4 mg/L. Moreover, the binding result in [11] is reported as “no binding (tested: 200 nM TREM2)”; in [12], “no binding”.
